Test results reported in US20060204498A1 (MERCK SERONO, published 2006).
Substitutions are numbered along the chain they refer to.

T1: human CXCR3 (human, UniProt P49682 1-368)
T1 construct: whole, on cells; in FACS and chemotaxis on whole transfected HEK or L1.2 cells; also called GPR9
T1 sequence (looked up): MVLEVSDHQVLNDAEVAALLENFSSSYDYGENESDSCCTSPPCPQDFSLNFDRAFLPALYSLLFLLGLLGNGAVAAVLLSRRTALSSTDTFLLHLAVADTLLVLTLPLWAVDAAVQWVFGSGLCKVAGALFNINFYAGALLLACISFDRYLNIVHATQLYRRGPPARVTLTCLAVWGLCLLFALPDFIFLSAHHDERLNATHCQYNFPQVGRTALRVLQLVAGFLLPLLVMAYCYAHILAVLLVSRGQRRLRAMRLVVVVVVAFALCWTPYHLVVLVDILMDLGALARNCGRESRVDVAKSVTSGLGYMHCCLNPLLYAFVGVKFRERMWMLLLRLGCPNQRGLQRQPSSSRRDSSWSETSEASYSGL

B1: mature human CXCL11 (CXCL11-WT) (ligand)
chain: FPMFKRGRCLCIGPGVKAVKVADIEKASIMYPSNNCDKIEVIITLKENKGQRCLNPKSKQARLIIKKVERKNF
notes: 73 residues with no additional residues; also called hCXCL11; I-TAC
B2: CXCL11-2B3 (ligand)
chain: B1 chain with K46A, K49A, R52A
notes: Mutein of mature human CXCL11; E. coli, leader cleaved with caspase 8; also called CXCLII-2B3
B3: CXCL11-3B3 (ligand)
chain: B1 chain with K57A, K59A, R62A
notes: Mutein of mature human CXCL11; E. coli, leader cleaved with caspase 8; also called CXCLII-3B3
B4: CXCL11-4B4 (ligand)
chain: B1 chain with K66A, K67A, R70A, K71A
notes: Mutein of mature human CXCL11; E. coli, leader cleaved with caspase 8; also called CXCLII-4B4
B5: [125I]-CXCL11 (radiolabelled recombinant human I-TAC; Peprotech) (ligand, UniProt O14625 22-94, looked up)
chain: B1 chain
modifications: [125I] label, site not stated
notes: Commercial protein; also called Radiolabelled CXCL11; radiolabelled, commercial CXCL11

What was measured:
human CXCR3 [1] = target: T1, human CXCR3; test: equilibrium competition receptor binding, SPA, [125I]-CXCL11 tracer, membranes of CXCR3-expressing HEK cells
Description: The assays were carried out on membranes from HEK cells stably expressing CXCR3 using a Scintillation Proximity Assay (SPA), with [¹²⁵I]-CXCL11 as tracer. Radiolabelled CXCL11 (recombinant human I-TAC; Peprotech) was generated and tested according to the [¹²⁵I] supplier (Amersham; specific activity of […]), also to check for CXCR3-expressing HEK and L1.2 clones positively stained during FACS analysis.
Competitors were prepared by serial dilutions (range from 10⁻⁶ to 10⁻¹² M) of the unlabelled CXCL11, or one of its mutant, in the binding buffer (50 mM HEPES pH 7.2, 1 mM CaCl₂, 5 mM MgCl₂, 0.15 M NaCl and 0.5% Bovine Serum Albumin). Wheat germ SPA beads (Amersham) were solubilised in PBS to 50 mg/ml, and diluted in the binding buffer to a 10 mg/ml, and the final concentration in the assay was 0.25 mg/well. Cell membranes expressing CXCR3 were stored at −80° C. and diluted in the binding buffer to 20 μg/ml. Equal volumes of membrane and beads stocks were mixed before performing the assay to reduce background. The final membrane concentration was 5 μg/well and that of [¹²⁵I]-CXCL11 was 0.05 nM. The plates were incubated at room temperature with agitation for 4 hours. Radioactivity was counted (1 minute/well) in a beta counter. Data from triplicate samples were analysed using Prism® software (GraphPad).
Finally, an equilibrium competition receptor-binding assay was performed to compare the properties of the muteins on the binding of the specific receptor CXCR3 (FIG. 3). Samples containing a constant amount of radiolabelled, commercial CXCL11 were mixed with serial dilutions of CXCL11-WT, or of one of the muteins, and then incubated with membranes prepared from CXCR3-expressing HEK cells. […] Therefore, the affinity for the receptor is substantially retained in heparin-binding defective CXCL11-WT carboxyl-terminal mutants, whilst the mutations in amino-terminus affect specifically receptor binding, a feature which appears as clearly distinct.

human CXCR3 [2] = target: T1, human CXCR3; test: radioligand equilibrium binding on CXCR3-transfected HEK and L1.2 clones

| Binder | reduction in the affinity for CXCR3 against CXCL11-WT (human CXCR3 [1]) | other results |
| --- | --- | --- |
| B1 | – | binding result (human CXCR3 [1]): binds |
| B2 | ≤ 1 order of magnitude | – |
| B3 | ≤ 1 order of magnitude | – |
| B4 | ≤ 1 order of magnitude | – |
| B5 | – | binding result (human CXCR3 [2]): binds |
